Earlier results on one substance are cited in PMC8257665.

For one data set, the target named is Glu109 (UniProt position 109, PLLICEFYLIL). As to conditions: ground (dark) state GPR implied; not stated explicitly.
The target in the next data set is Glu143 (UniProt position 143, FGYMGEAGIMA). The conditions noted are these: ground (dark) state GPR implied; not stated explicitly.

For the substance “Green-light absorbing proteorhodopsin (GPR) (uncultured marine gamma-proteobacterium (the article says only 'marine γ-proteobacteria'))”, the figures for the pKa with Glu109 and in the data set with Glu143 were more than 8.5 and more than 9.0, respectively.

As a reminder, the pKa is the pH at which an ionisable group is half protonated.
